According to patent US20250339531A1, “DUX4 POLYPEPTIDES AND NUCLEIC ACIDS FOR TREATING INFLAMMATORY AND AUTOIMMUNE CONDITIONS” (Fred Hutchinson Cancer Center, priority 2021, published 2025):

Key:
Assay in all cases: anti-FLAG co-IP LC-MS, exp 3, +Dox
[1] = target: Plasminogen activator inhibitor 1 RNA-binding protein (Homo sapiens) (UniProt Q8NC51)
[2] = target: Alpha-actinin-4 (Homo sapiens) (UniProt O43707)
[3] = target: 40S ribosomal protein S3a (Homo sapiens) (UniProt P61247)
[4] = target: Endoplasmic reticulum chaperone BiP (Homo sapiens) (UniProt P11021)
[5] = target: Prostate tumor-overexpressed gene 1 protein (Homo sapiens) (UniProt Q86YD1)
[6] = target: 60S ribosomal protein L8 (Homo sapiens) (UniProt P62917)
Caprin-1 (Homo sapiens) = Caprin-1 (Homo sapiens) (UniProt Q14444)
[7] = target: Ribonuclease inhibitor (Homo sapiens) (UniProt P13489)
[8] = target: AP-2 complex subunit alpha-1 (Homo sapiens) (UniProt O95782)
[9] = target: Serine/threonine-protein phosphatase 2A 65 kDa regulatory subunit A alpha isoform (Homo sapiens) (UniProt P30153)
[10] = target: Tubulin beta-2A chain (Homo sapiens) (UniProt Q13885)
[11] = target: Elongation factor 1-alpha 1 (Homo sapiens) (UniProt P68104)
[12] = target: S-adenosylhomocysteine hydrolase-like protein 1 (Homo sapiens) (UniProt O43865)
[13] = target: Heterogeneous nuclear ribonucleoprotein K (Homo sapiens) (UniProt P61978)
[14] = target: 60S ribosomal protein L13 (Homo sapiens) (UniProt P26373)
[15] = target: Actin-related protein 3 (Homo sapiens) (UniProt P61158)
[16] = target: Neutral cholesterol ester hydrolase 1 (Homo sapiens) (UniProt Q6PIU2)
Desmin (Homo sapiens) = Desmin (Homo sapiens) (UniProt P17661)
[17] = target: Heat shock protein HSP 90-beta (Homo sapiens) (UniProt P08238)
[18] = target: Probable ATP-dependent RNA helicase DDX6 (Homo sapiens) (UniProt P26196)
[19] = target: Tubulin alpha-1B chain (Homo sapiens) (UniProt P68363)
[20] = target: Cytoskeleton-associated protein 4 (Homo sapiens) (UniProt Q07065)
[21] = target: Tubulin beta-6 chain (Homo sapiens) (UniProt Q9BUF5)
[22] = target: Elongation factor 1-gamma (Homo sapiens) (UniProt P26641)
Myosin-9 (Homo sapiens) = Myosin-9 (Homo sapiens) (UniProt P35579)
[23] = target: 60S ribosomal protein L3 (Homo sapiens) (UniProt P39023)
[24] = target: KN motif and ankyrin repeat domain-containing protein 2 (Homo sapiens) (UniProt Q63ZY3)
[25] = target: Nucleophosmin (Homo sapiens) (UniProt P06748)
[26] = target: Tubulin beta-4B chain (Homo sapiens) (UniProt P68371)
[27] = target: Ribosome-binding protein 1 (Homo sapiens) (UniProt Q9P2E9)
Filamin-C (Homo sapiens) = Filamin-C (Homo sapiens) (UniProt Q14315)
[28] = target: 60S ribosomal protein L4 (Homo sapiens) (UniProt P36578)
Vimentin (Homo sapiens) = Vimentin (Homo sapiens) (UniProt P08670)
Plectin (Homo sapiens) = Plectin (Homo sapiens) (UniProt Q15149)
[29] = target: 40S ribosomal protein S8 (Homo sapiens) (UniProt P62241)
[30] = target: Prolyl 4-hydroxylase subunit alpha-1 (Homo sapiens) (UniProt P13674)
[31] = target: Neuroblast differentiation-associated protein AHNAK (Homo sapiens) (UniProt Q09666)
Drebrin (Homo sapiens) = Drebrin (Homo sapiens) (UniProt Q16643)
[32] = target: Tubulin beta chain (Homo sapiens) (UniProt P07437)
[33] = target: Protein disulfide-isomerase (Homo sapiens) (UniProt P07237)

Chain of Probable ATP-dependent RNA helicase DDX6 (Homo sapiens) (P26196 whole entry): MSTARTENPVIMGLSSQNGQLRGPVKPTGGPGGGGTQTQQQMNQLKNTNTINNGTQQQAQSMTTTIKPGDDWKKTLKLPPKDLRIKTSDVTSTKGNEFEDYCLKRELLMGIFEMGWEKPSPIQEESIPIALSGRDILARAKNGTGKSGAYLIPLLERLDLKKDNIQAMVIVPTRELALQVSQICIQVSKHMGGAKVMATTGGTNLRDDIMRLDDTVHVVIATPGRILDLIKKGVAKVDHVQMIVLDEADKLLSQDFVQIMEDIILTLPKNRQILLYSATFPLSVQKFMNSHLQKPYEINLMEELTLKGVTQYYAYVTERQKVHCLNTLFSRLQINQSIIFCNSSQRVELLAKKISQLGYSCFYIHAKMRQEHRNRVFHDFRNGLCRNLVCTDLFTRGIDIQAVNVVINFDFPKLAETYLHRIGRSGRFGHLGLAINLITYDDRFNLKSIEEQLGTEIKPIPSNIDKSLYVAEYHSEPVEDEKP
Chain of Tubulin beta-2A chain (Homo sapiens) (Q13885 whole entry): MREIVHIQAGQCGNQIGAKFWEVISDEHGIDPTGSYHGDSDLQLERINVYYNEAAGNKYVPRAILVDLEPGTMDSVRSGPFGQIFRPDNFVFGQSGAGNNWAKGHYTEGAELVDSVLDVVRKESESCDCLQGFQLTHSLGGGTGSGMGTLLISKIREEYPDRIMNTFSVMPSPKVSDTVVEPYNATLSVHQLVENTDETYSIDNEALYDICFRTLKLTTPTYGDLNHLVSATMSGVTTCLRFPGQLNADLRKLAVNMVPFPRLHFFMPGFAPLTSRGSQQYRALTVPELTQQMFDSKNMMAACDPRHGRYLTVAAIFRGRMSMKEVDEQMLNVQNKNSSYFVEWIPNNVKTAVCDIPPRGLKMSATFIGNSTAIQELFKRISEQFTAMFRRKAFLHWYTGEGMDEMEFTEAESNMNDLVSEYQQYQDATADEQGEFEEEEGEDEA
Chain of Endoplasmic reticulum chaperone BiP (Homo sapiens) (P11021 19-654 limits assumed): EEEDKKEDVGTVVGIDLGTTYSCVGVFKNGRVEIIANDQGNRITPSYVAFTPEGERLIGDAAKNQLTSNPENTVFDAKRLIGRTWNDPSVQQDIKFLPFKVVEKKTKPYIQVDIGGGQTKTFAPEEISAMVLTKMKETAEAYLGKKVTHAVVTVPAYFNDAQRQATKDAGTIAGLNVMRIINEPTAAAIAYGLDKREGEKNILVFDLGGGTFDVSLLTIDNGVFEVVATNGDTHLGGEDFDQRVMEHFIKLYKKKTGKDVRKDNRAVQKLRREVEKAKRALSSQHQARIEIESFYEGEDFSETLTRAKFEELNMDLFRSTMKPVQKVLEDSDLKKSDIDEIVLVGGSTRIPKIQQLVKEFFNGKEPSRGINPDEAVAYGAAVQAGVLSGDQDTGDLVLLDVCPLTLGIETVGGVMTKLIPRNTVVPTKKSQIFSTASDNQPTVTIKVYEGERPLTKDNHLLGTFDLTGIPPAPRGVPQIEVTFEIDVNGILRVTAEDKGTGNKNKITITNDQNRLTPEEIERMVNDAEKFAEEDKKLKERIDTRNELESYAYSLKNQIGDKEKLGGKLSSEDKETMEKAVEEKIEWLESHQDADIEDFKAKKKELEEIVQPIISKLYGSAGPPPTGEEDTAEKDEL
Chain of Prolyl 4-hydroxylase subunit alpha-1 (Homo sapiens) (P13674 18-534 limits assumed): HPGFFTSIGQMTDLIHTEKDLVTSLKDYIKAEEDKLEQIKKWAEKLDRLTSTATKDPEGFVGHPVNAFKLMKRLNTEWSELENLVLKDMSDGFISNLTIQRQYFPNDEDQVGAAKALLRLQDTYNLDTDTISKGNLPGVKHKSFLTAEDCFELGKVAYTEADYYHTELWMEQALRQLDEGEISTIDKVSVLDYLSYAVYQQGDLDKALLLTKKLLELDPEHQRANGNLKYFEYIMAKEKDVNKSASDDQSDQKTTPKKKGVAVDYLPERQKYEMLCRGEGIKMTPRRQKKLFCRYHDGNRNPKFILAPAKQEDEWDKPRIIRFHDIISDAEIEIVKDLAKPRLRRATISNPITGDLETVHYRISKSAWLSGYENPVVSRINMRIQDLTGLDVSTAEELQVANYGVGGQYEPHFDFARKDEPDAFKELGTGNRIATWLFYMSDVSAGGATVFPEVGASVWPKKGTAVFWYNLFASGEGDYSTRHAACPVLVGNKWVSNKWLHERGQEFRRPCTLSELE
Chain of Tubulin alpha-1B chain (Homo sapiens) (P68363 whole entry): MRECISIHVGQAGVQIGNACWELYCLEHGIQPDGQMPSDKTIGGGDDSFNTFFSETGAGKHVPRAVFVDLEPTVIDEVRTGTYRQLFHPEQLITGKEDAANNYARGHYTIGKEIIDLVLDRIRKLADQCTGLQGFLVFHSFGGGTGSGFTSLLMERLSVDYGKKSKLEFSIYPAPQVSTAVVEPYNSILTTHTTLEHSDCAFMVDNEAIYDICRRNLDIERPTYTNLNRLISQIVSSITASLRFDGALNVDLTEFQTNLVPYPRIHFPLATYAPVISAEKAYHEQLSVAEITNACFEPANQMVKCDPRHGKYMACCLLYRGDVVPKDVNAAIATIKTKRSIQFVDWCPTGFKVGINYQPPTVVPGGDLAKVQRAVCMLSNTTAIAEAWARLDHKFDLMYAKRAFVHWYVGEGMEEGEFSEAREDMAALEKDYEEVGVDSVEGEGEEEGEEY
Chain of Elongation factor 1-alpha 1 (Homo sapiens) (P68104 2-462 limits assumed): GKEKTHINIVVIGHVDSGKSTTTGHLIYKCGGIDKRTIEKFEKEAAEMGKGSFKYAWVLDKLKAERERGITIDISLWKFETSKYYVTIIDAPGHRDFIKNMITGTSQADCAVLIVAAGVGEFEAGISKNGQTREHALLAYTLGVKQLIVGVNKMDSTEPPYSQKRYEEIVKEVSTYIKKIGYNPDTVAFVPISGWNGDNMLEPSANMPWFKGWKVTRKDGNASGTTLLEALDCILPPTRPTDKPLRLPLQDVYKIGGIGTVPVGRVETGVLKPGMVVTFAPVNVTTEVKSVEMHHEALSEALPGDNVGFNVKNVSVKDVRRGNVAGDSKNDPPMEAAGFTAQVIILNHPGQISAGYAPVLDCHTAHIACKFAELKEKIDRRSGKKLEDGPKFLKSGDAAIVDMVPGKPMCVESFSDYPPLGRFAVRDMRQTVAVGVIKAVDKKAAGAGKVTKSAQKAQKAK
Chain of Tubulin beta-4B chain (Homo sapiens) (P68371 whole entry): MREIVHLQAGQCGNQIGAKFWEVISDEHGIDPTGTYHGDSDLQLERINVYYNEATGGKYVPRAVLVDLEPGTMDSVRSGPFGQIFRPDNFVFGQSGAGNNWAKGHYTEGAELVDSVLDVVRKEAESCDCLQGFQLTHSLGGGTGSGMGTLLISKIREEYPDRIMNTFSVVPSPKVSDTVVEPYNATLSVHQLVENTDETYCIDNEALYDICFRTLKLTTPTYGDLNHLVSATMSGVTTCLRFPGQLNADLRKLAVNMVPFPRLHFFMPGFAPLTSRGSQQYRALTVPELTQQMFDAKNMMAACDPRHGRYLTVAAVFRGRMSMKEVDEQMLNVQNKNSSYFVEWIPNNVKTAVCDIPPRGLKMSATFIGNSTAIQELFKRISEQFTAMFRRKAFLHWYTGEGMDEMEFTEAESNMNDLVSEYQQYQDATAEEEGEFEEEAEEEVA
Chain of Plasminogen activator inhibitor 1 RNA-binding protein (Homo sapiens) (Q8NC51 2-408 limits assumed): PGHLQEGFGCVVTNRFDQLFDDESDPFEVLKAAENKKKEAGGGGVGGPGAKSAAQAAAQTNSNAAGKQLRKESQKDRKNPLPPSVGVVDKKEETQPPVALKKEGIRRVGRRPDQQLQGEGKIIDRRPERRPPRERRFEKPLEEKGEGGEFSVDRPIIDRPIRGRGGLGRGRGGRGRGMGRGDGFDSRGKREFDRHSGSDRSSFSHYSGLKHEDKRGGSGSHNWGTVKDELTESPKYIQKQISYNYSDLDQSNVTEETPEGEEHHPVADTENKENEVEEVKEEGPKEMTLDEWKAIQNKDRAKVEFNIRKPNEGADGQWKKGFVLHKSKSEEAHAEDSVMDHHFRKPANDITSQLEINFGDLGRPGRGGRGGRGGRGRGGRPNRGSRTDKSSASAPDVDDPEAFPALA
Chain of Elongation factor 1-gamma (Homo sapiens) (P26641 2-437 limits assumed): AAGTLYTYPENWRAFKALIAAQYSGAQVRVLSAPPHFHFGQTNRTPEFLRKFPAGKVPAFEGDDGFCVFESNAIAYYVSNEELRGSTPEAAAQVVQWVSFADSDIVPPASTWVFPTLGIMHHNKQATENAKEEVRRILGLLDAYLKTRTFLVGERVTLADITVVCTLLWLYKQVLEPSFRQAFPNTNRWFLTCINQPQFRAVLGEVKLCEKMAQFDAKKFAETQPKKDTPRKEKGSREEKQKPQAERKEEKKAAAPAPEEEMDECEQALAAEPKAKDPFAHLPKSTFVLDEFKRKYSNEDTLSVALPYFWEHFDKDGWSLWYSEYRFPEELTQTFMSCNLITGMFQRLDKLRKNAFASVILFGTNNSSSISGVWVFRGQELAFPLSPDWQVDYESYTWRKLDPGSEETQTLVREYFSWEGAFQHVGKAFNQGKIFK
Chain of Drebrin (Homo sapiens) (Q16643 2-649 limits assumed): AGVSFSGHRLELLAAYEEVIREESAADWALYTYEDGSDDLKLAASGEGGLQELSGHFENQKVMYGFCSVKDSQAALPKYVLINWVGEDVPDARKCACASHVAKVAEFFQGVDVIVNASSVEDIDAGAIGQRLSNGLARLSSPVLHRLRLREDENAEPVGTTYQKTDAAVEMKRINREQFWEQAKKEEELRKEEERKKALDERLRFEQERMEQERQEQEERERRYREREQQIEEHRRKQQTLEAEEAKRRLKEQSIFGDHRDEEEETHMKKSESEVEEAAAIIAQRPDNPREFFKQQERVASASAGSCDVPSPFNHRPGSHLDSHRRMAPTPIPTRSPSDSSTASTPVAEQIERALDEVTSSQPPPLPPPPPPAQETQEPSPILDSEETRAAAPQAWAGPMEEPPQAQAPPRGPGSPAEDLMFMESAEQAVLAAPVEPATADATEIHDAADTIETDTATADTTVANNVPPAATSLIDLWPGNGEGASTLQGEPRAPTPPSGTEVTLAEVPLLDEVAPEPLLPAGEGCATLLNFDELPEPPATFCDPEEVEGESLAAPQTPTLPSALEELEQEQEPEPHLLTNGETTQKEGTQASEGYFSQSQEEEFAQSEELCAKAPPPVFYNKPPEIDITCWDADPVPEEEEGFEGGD

With i3XFLAG-NLS-CTDaa154-424 the PSMs [1] was 2 PSMs, the PSMs [2] was 2 PSMs and the PSMs [3] was 3 PSMs. For the same substance, the PSMs [4] was 22 PSMs, the PSMs [5] was 2 PSMs and the PSMs [6] was 3 PSMs. The PSMs (Caprin-1 (Homo sapiens)) was 5 PSMs, the PSMs [7] was 3 PSMs and the PSMs [8] was 10 PSMs. The PSMs [9] was 5 PSMs, the PSMs [10] was 35 PSMs and the PSMs [11] was 9 PSMs. The PSMs [12] was 7 PSMs, the PSMs [13] was 2 PSMs and the PSMs [14] was 2 PSMs. It also gave a PSMs [15] of 5 PSMs, a PSMs [16] of 3 PSMs and a PSMs (Desmin (Homo sapiens)) of 9 PSMs. It also gave a PSMs [17] of 2 PSMs, a PSMs [18] of 2 PSMs and a PSMs [19] of 22 PSMs. It also gave a PSMs [20] of 30 PSMs, a PSMs [21] of 20 PSMs and a PSMs [22] of 3 PSMs. The PSMs (Myosin-9 (Homo sapiens)) was 122 PSMs, the PSMs [23] was 3 PSMs and the PSMs [24] was 3 PSMs. The PSMs [25] was 2 PSMs, the PSMs [26] was 42 PSMs and the PSMs [27] was 24 PSMs. The PSMs (Filamin-C (Homo sapiens)) was 2 PSMs, the PSMs [28] was 10 PSMs and the PSMs (Vimentin (Homo sapiens)) was 42 PSMs. It also gave a PSMs (Plectin (Homo sapiens)) of 5 PSMs, a PSMs [29] of 2 PSMs and a PSMs [30] of 3 PSMs. For the same substance, the PSMs [31] was 8 PSMs, the PSMs (Drebrin (Homo sapiens)) was 3 PSMs and the PSMs [32] was 41 PSMs. For the same substance, the PSMs [33] was 3 PSMs.
